Five molecules from publication PMC8217500, “Sequence signatures of two public antibody clonotypes that bind SARS-CoV-2 receptor binding domain” (Nature Communications, 2021) can be followed below.

As usually defined, the Kd is the constant that tells how readily two partners part at equilibrium.

For experiment [1], the target named is T1, Fc-tagged SARS-CoV-2 receptor-binding domain (RBD), wild type (SARS-CoV-2, Wuhan-Hu-1 (QHD43416.1), UniProt P0DTC2).
T1 construct: also called SARS-CoV-2 RBD; WT RBD; not shown: Fc, C-terminal, kept
The experiment is described as follows: BLI; Fc-tagged RBD (20 ug/ml) loaded on anti-hIgG Fc Capture (AHC) biosensors, Fab in solution at four to five concentrations; Octet Red96e, room temperature, 1x kinetics buffer (1x PBS pH 7.4, 0.01% w/v BSA, 0.002% v/v Tween 20); 1:1 binding model. As to conditions: both partners purified. A general note: In BLI a coated tip is dipped into the sample, and binding shifts an interference pattern.

Experiment [2] has as its target T2, Fc-tagged SARS-CoV-2 spike receptor-binding domain (RBD) (SARS-CoV-2, Wuhan-Hu-1 (QHD43416.1), UniProt P0DTC2).
T2 construct: also called SARS-CoV-2 RBD; Fc-tagged RBD; source: Expi293F, transiently transfected, purified (KanCapA protein A resin); not shown: Fc (after an SSSSG linker), C-terminal, kept
As to the kind of experiment: BLI; Fc-tagged RBD (20 ug/ml) loaded on anti-hIgG Fc Capture (AHC) biosensors, Fab in solution; room temperature; 1x PBS pH 7.4, 0.01% BSA, 0.002% Tween 20; 1:1 binding model. As to conditions: both partners purified.

Where a chain is given by its changes, count along the chain named. Numbers in names are those of the source.

B1: COV107-23 F58Y Fab (Fab, V domains shown)
VH: EVQLVESGGGLIQPGGSLRLSCAASGFTVSSNYMSWVRQAPGKGLEWVSVIYSGGSTYYADSVKGRFTISRDNSKNTLYLQMNSLRAEDTAVYYCARDLGTGLFDYWGQGTLVTVSS
VL: DIQLTQSPSFLSASVGDRVTITCRASQGISSYLAWYQQKPGKAPKLLIYAASTLQSGVPSRFSGSGSGTEFTLTISSLQPEDFATYYCQQLDSYPPGTFGPGTKVDIK
Molecule B1 returned a Kd in experiment [1] of 362 ± 18 nM.

B2: CC12.3 Fab, Y58 variant (heavy chain F58Y) (Fab, V domains shown)
VH: B1 VH with E1Q, N76S, A87V, L99F, T101D, G102F, L103Y
VL: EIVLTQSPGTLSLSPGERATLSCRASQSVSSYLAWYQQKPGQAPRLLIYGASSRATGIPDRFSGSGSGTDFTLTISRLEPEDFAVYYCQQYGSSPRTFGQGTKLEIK
notes: also called CC12.3 Y58
Regarding B2, binding in experiment [2] was put at a Kd of 97 nM. In other words, the double-digit nanomolar range.

B3: CC12.3 F58Y Fab (Fab, V domains shown)
VH: B1 VH with E1Q, N76S, A87V, L99F, T101D, G102F, L103Y
VL: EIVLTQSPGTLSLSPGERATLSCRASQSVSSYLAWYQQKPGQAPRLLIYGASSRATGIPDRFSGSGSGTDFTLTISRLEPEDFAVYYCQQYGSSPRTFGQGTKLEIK
Take B3: the equilibrium dissociation constant (Kd) in experiment [1] was found to be 97 ± 2 nM.

B4: COVA2-20 Y58F Fab (Fab, V domains shown)
VH: EVQLVESGGGLIQPGGSLRLSCAASGFTVSSNYMSWVRQAPGKGLEWVSVIYSGGSTFYADSVKGRFTISRDNSKNTLYLQMNSLRAEDTAVYYCASPLLLTPPDYYYYMDVWGKGTMVTVSS
VL: DVVMTQSPSSLSVSVGDRVTITCRASQGIRNDLGWYQQKPGKAPKRLIYAASSLQSGVPSRFSGSGSGTEFTLTISSLQPEDFATYYCLQHNSYLWTFGQGTKLEIK
B4: in experiment [1], the Kd was determined as 286 ± 17 nM.

B5: COVA2-20 Fab, F58 variant (heavy chain Y58F) (Fab, V domains shown)
VH: B4 VH
VL: B4 VL
notes: also called COVA2-20 F58
As for B5, in experiment [2], the affinity, expressed as Kd, was 286 nM.
